2 molecules from patent US20200277377A1 (WUXI BIOLOGICS SHANGHAI, published 2020) can be followed below.

Experiment [1] deals with T1, cynomolgus monkey CTLA-4 ECD-6×His (cynomolgus monkey).
T1 construct: extracellular domain; Bought; also called cynomoguls monkey CTLA-4.ECD-6×His
Briefly: ELISA, coated cynomolgus monkey CTLA-4.ECD-6×His. The protocol: (§1) ELISA was used to test binding of anti-human CTLA-4 antibodies to human, murine and cynomolgus monkey CTLA-4 protein. A 96-well plate was coated with human CTLA-4.ECD-6×His (1.0 μg/mL), cynomoguls monkey CTLA-4.ECD-6×His (0.5 μg/mL) or mouse CTLA-4.ECD-6×His (0.5 μg/mL) at 4° C. for 16-20 hours. After 1 hour blocking with 2% BSA in DBPS, testing antibodies, as well as positive and negative control antibodies were added to the plates and incubated at room temperature for 1 hour. The binding of the antibodies to the plates were detected by HRP-conjugated goat anti-human IgG antibody (1:5000 dilution) with 1 hour incubation. The color was developed by dispensing 100 μL of TMB substrate for 8 mins, and then stopped by 100 μL of 2N HCl.
On the technique in general: ELISA stands for enzyme-linked immunosorbent assay.

The next experiment deals with T2, hCTLA-4.ECD.hFc-Biotin (human, UniProt P16410 36-161, biotinylated (sites not given)).
T2 construct: extracellular domain; also called Biotinylated CTLA-4.ECD.hFc; biotinylated human CTLA4.ECD.hFc; not shown: human Fc tag (hFc)
T2 sequence (looked up): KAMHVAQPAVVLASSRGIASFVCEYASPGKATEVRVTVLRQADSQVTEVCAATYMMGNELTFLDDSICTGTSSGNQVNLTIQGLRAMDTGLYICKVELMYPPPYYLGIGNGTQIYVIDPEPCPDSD
The experiment is described as follows: FACS competition, hCTLA-4.ECD.hFc-Biotin on CD86-expressing CHO cells. The protocol: PE conjugated Streptavidin was purchased from eBioscience (Catalog number 12-4317).
Then the mixtures of antibody and CTLA-4 were added to the cells and incubated for 1 hour at 4° C. The cells were washed two times with 200 μL FACS buffer (DPBS containing 1% BSA). Streptavidin PE 1 to 333 diluted in FACS buffer was added to the cells and incubated at 4° C. for 1 hour. Additional washing steps were performed two times with 200 μL FACS buffer followed by centrifugation at 1500 rpm for 4 minutes at 4° C. Finally, the cells were resuspended in 100 μL FACS buffer and fluorescence values were measured by flow cytometry and analyzed by FlowJo.

The target of a further experiment is T3, human CTLA-4.ECD.hFc (human, UniProt P16410 36-161).
T3 construct: extracellular domain; also called hCTLA-4.ECD.hFc; not shown: human Fc tag (hFc)
T3 sequence (looked up): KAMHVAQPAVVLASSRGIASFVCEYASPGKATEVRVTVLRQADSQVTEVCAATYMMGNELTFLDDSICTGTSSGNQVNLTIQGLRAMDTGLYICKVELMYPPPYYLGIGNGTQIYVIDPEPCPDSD
The experiment is described as follows: competition ELISA, coated human CTLA-4.ECD.hFc, competitor CD80-6×His. The protocol: Plates were coated with human CTLA-4.ECD.hFc (0.5 μg/mL) at 4° C. for 16-20 hours. […] After washing three times with PBS containing 0.05% Tween 20, biotinylated anti-His tag antibody was 1:2000 diluted and added. The plates were incubated at room temperature for 1 hour. The bound ligands were detected by HRP conjugated streptavidin (1:20000). The color was developed by dispensing 100 μL of TMB substrate for 8 mins, and then stopped by 100 μL of 2N HCl.

In the next experiment the target is T4, human CTLA-4.ECD-6×His (human, UniProt P16410 36-161).
T4 construct: extracellular domain; also called WBP316.hCTLA-4.ECD-6×His; hCTLA4-His (WT)
T4 sequence: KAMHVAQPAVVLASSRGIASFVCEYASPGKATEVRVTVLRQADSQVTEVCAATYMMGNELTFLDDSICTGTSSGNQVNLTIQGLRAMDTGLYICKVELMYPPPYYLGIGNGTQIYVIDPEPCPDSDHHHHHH
Briefly: SPR, antibody captured on anti-human Fc, CTLA-4.ECD-6×His as analyte, 1:1 fit. The protocol: (§2) Biacore T200, Series S Sensor Chip CMS, Amine Coupling Kit, and 10×HBS-EP were purchased from GE Healthcare. […] In immobilization step, the activation buffer was prepared by mixing 400 mM EDC and 100 mM NHS immediately prior to injection. The CM5 sensor chip was activated for 420 s with the activation buffer. 30 μg/mL of goat anti-human IgG Fcγ antibody in 10 mM NaAc (pH 4.5) was then injected to Fc1-Fc4 channels for 200 s at a flow rate of 5 μL/min. The chip was deactivated by 1 M ethanolamine-HCl (GE). Then the antibodies were captured on the chip. Briefly, 4 μg/mL antibodies in running buffer (HBS-EP+) was injected individually to Fc3 channel for 30 s at a flow rate of 10 μL/min. […] Regeneration buffer (10 mM Glycine pH 1.5) was injected at 10 μL/min for 30 s following every dissociation phase.
(§3) The binding kinetics of these antibodies were measured using SPR. The antibodies were captured on immobilized anti-human Fc and CTLA-4-ECD at different concentration was injected orderly. The sensorgrams for reference channel and buffer channel were subtracted from the test sensorgrams. The data was used for 1:1 binding analysis on human, monkey and mouse CTLA-4.ECD-6×His.
A general note: SPR reads the build-up and loss of mass on a sensor chip optically.

Experiment [2] concerns the target T1, cynomolgus monkey CTLA-4 ECD-6×His. The experiment is described as above. The protocol:
as §2, §3

Experiment [3] addresses T5, Murine CTLA-4.ECD-6×His (mouse, UniProt P09793 36-161).
T5 construct: extracellular domain; Bought; also called mouse CTLA-4.ECD-6×His; mouse CTLA-4 ECD
Briefly: ELISA, antibody titrated on coated mouse CTLA-4.ECD-6xHis, OD450 [C) Murine CTLA-4]. The protocol: as §1

The target in experiment [4] is T5, Murine CTLA-4.ECD-6×His. The experiment is described as follows: ELISA, coated mouse CTLA-4.ECD-6×His. The protocol: as §1
Experiment [5] deals with T6, hCTLA4_ECD.His point mutant I128 to alanine (human, UniProt P16410 36-161).
T6 construct: extracellular domain; alanine-scan mutein, HEK293F supernatant
T6 sequence (looked up): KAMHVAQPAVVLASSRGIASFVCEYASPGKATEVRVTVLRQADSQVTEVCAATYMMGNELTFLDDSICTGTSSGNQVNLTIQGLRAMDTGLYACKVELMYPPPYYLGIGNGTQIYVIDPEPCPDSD
The experiment is described as follows: capture ELISA, alanine scan, vs silent alanine substitutions. The protocol:
In order to test how the mutations affect antibody-binding, a capture ELISA was conducted. […] After interacting with the supernatant that contains quantified CTLA4 muteins, HRP conjugated anti-His antibody (1:5000; Rockland Immunochemicals, Pottstown, Pa.) was added as detection antibody. TMB was used as substance of HRP. Absorbance was normalized according to the average of control mutants. After setting an additional cutoff to the binding fold change (<0.55), the final determined epitope residues were identified.

A word on the EC50: it is the midpoint of the concentration-response curve. One may read the IC50 as the concentration that gives 50% inhibition. As a reminder, the Kd is a measure of binding affinity in units of concentration. The koff is a measure of how fast the partners let go of each other. The kon is the rate constant with which the complex forms.

B1: W3162_1.154.8-z35-uAb.IgG1K (antibody, V domains shown)
VH: QVQLVQSGAEVKKPGSSVKVSCKASGYTFTNYFMNWVRQAPGQGLEWMGRVDPEQGRADYAEKFKKRVTITADKSTSTAYMELSSLRSEDTAVYYCARRAMDNYGFAYWGQGTLVTVSS
VL: EIVLTQSPDFQSVTPKEKVTITCSANSALSYMYWYQQKPDQSPKLWVHGTSNLASGVPSRFSGSGSGTDFTLTINSLEAEDAATYYCHHWSNTQWTFGGGTKVEIK
notes: Humanized; label says IgG1K
In experiment [1], B1 came in with a concentration giving a half-maximal response (EC50) of 0.05 nM. In the experiment with hCTLA-4.ECD.hFc-Biotin, the IC50 was found to be 0.28 nM. In the experiment with human CTLA-4.ECD.hFc, this molecule showed an IC50 of 0.63 nM. Moreover, in the experiment with human CTLA-4.ECD-6×His, the equilibrium dissociation constant (Kd) worked out at 0.0968 nM, the off-rate (koff) came out at 0.000119 s⁻¹ and the kon was 1.23e+06 M⁻¹ s⁻¹. Also, in experiment [2], the equilibrium dissociation constant (Kd) came out at 0.131 nM, the off-rate constant (koff) worked out at 0.000122 s⁻¹ and the kon amounted to 932000 M⁻¹ s⁻¹. The binding result in the experiment with Murine CTLA-4.ECD-6×His [3] is given as “no binding (tested: about 7 nM)”.

B2: W3162-1.146.19-z12-uAb.IgG1K (antibody, V domains shown)
VH: QVQLQESGPGLVKPSETLSLTCSVTYHTITSGYDWTWIRKPPGKGMEWIGYISYSGNTNYNPSLKSRVTISRDTSKNQFFLKLSSVTAADTAVYYCASMMVPHYYVMDAWGQGTLVTVSS
VL: DIVMTQTPLSLSVTPGQPASISCRSSQSLLNSDGNTYLYWYLQKPGQSPQLLIYLVSKLGSGVPNRFSGSGSGTDFTLKISRVEAEDVGVYYCVQGTHDPWTFGGGTKVEIK
notes: Humanized; label says IgG1K
Turning to B2, the results for the concentration for a half-maximal effect (EC50) (in the experiment with Murine CTLA-4.ECD-6×His [4]; in experiment [1]) were 0.19 nM and 0.05 nM, respectively. Further, the Fold change in experiment [5] was determined as 0.256 fold. In addition, the IC50 with hCTLA-4.ECD.hFc-Biotin came to 5.15 nM; in the experiment with human CTLA-4.ECD.hFc it was 0.87 nM. Also, the values for the Kd (in the experiment with human CTLA-4.ECD-6×His; in experiment [2]) were 0.477 nM and 1.92 nM, respectively. Moreover, the results for the koff (with human CTLA-4.ECD-6×His; in experiment [2]) were 9.82e-05 s⁻¹ and 0.000331 s⁻¹, respectively. Besides, the kon amounted to 206000 M⁻¹ s⁻¹ with human CTLA-4.ECD-6×His and 173000 M⁻¹ s⁻¹ in experiment [2].
